Source: publication PMC11964602 (Bioactive Materials, 2025)
Where no end group is shown, it is not given here.

Biological target: SARS-CoV-2 M^pro (Severe acute respiratory syndrome coronavirus 2, UniProt P0DTD1)
Assay: biochemical
Format: biochemical
Conditions: for M^pro inhibition (%): 100 µM

Row | Compound | M^pro inhibition (%) | also measured
1 | CC[C@H](C)[C@H](NC(=O)[C@H](CCC(=O)O)NC(=O)[C@H](C)NC(=O)[C@H](CCSC)NC(=O)[C@H](CC(=O)O)NC(=O)[C@@H]1CCCN1C(=O)[C@H](CCCCN)NC(=O)[C@H](CC(=O)O)NC(=O)[C@H](CO)NC(C)=O)C(=O)N[C@@H](CCC(=O)O)C(=O)N[C@@H](CCCCN)C(=O)N[C@@H](Cc1ccccc1)C(=O)N[C@@H](CC(=O)O)C(=O)N[C@@H](CCCCN)C(=O)N[C@@H](CO)C(=O)N[C@@H](CCCCN)C(=O)N[C@@H](CC(C)C)C(=O)N[C@@H](CCCCN)C(=O)N[C@@H](CCCCN)C(=O)N[C@H](C(=O)N[C@@H](CCC(=O)O)C(=O)N[C@H](C(=O)N[C@@H](CCC(N)=O)C(=O)N[C@@H](CCC(=O)O)C(=O)N[C@@H](CCCCN)C(=O)N[C@@H](CC(N)=O)C(=O)N1CCC[C@H]1C(=O)N[C@@H](CC(C)C)C(=O)N1CCC[C@H]1C(=O)N[C@@H](CO)C(=O)N[C@@H](CCCCN)C(=O)N[C@@H](CCC(=O)O)C(=O)N[C@H](C(=O)N[C@H](C(=O)N[C@@H](CCC(=O)O)C(=O)N[C@@H](CCC(N)=O)C(=O)N[C@@H](CCC(=O)O)C(=O)N[C@@H](CCCCN)C(=O)N[C@@H](CCC(N)=O)C(=O)N[C@@H](C)C(=O)NCC(=O)N[C@@H](CCC(=O)O)C(=O)N[C@@H](CO)C(=O)O)[C@@H](C)CC)[C@@H](C)O)[C@@H](C)O)[C@@H](C)O [Ac-Tβ4, Acetyl-thymosin β4] |  | inhibition at 100 µM (read-out: M^pro inhibition (%)): 7.09%; IC50 against SARS-CoV-2 M^pro (six inhibitor concentrations 100 μM–97.65 nM): no inhibition
2 | Ac-SDKP |  | M^pro inhibition, in vitro screening of Ac-Tβ1-17 fragments (iterative N- and C-terminal fragments of Ac-Tβ1-17): less than 50%
3 | Ac-Tβ4_1-11: peptide metabolite of Ac-Tβ4, amino acids 1-11 (Ac-SDKPDMAEIEK; UniProt P62328 2-12, looked up, fragment) | 1.25 | 
4 | Ac-Tβ4_1-15: peptide metabolite of Ac-Tβ4, amino acids 1-15 (Ac-SDKPDMAEIEKFDKS) | 34.4 | 
5 | Ac-Tβ4_17-43: peptide metabolite of Ac-Tβ4, amino acids 17-43 (LKKTETQEKNPLPSKETIEQEKQAGES; Thymosin beta-4; UniProt P62328 18-44, looked up, fragment) | 25.16 | 
6 | Ac-Tβ4_31-43: peptide metabolite of Ac-Tβ4, amino acids 31-43 (KETIEQEKQAGES; Thymosin beta-4; UniProt P62328 32-44, looked up, fragment) | 1.88 | 
